Broadly, the Kd is the constant that tells how readily two partners part at equilibrium. Low readings indicate a tighter complex, high ones a looser complex.

From publication PMC6039445 (2018) come the findings set out here.

Holding throughout (experiment): BLI
A general note: In BLI a coated tip is dipped into the sample, and binding shifts an interference pattern.

Assay [1] concerns the target A/Panama/2007/1999 H3N2 HA, soluble trimeric (influenza A virus A/Panama/2007/1999 …).
The target of assay [2] is HA of A/Brisbane/10/2007 (H3N2) virus (influenza A virus A/Brisbane/10/2007 …).
For assay [3], the target named is A/Minnesota/11/2010 H3N2v HA, soluble, biotinylated (wild type) (influenza A virus A/Minnesota/11/2010 …).

B1: H3v-47 Fab (Fab, V domains shown)
VH: QVQLVQSGAEVKKPGSSVRVSCKASGDTFSSYSITWVRQAPGHGLQWMGGIFPIFGSTNYAQKFDDRLTITTDDSSRTVYMELTSLRLEDTAVYYCARGASKVEPAAPAYSDAFDMWGQGTLVTVSS
VL: DIVMTQSPGTLSLSPGERATLSCRTSQGVSSSYLAWYQQKPGQAPRLLISGSSSRATGIPDRFSGSGSGRDFTLTISRLEPEDSAVYYCQQYATSPTFGQGTRVEIK
Regarding B1, the Kd in assay [1] and in assay [2] was less than 5 nM each time.

B2: H3v-47 IgG (antibody, V domains shown)
VH: QVQLVQSGAEVKKPGSSVRVSCKASGDTFSSYSITWVRQAPGHGLQWMGGIFPIFGSTNYAQKFDDRLTITTDDSSRTVYMELTSLRLEDTAVYYCARGASKVEPAAPAYSDAFDMWGQGTLVTVSS
VL: DIVMTQSPGTLSLSPGERATLSCRTSQGVSSSYLAWYQQKPGQAPRLLISGSSSRATGIPDRFSGSGSGRDFTLTISRLEPEDSAVYYCQQYATSPTFGQGTRVEIK
Regarding B2, the Kd in assay [3] is less than 0.001 nM.
